Assay results from US20120180150A1 (published 2012).

Target: T1, mouse IP3R1 full length with C-terminal GFP (mouse, UniProt P11881 1-2749)
T1 construct: also called IP3R1-GFP; IP3R-GFP protein; not shown: C-terminal GFP of the pEGFP-N1 vector, with any linker from the cloning site
Assay: HA-matrix co-immunoprecipitation from HEK 293 cells, anti-GFP Western blot
Method: Into HEK 293 cells, a full length IP3R1-GFP expression plasmid and each of the KRAP full length, the deletion mutants, or the point-mutant expression plasmids were introduced together with lipofectamine LTX (Invitrogen), respectively, and the resulting cells were incubated for 24 hours. They were then homogenized in an extracting buffer (50 mM Tris-HCl, pH7.5, 140 mM NaCl, 0.5% NP40, 0.25M NDSB-201 (Calbiochem), and protease inhibitors (Complete EDTA-free, Roche)), and the homogenized mixture was centrifuged at 15,000 rpm for 30 minutes. The resulting supernatant was then subjected to immunoprecipitation with HA matrix (Roche) to precipitate the IP3R-GFP protein binding to the KRAP protein, and the precipitated IP3R-GFP protein was detected by Western blots using a rabbit polyclonal antibody (Clonetech) as an anti-GFP antibody. In the experiment using HCT 116 cells, the presence or absence of co-precipitation of the endogenous IP3R protein was investigated without transfection of the IP3R-GFP protein using a mouse monoclonal antibody (BD Transduction Laboratory) as an anti-IP3R3 antibody.

T1 sequence (P11881 whole entry S1044R/E1045K): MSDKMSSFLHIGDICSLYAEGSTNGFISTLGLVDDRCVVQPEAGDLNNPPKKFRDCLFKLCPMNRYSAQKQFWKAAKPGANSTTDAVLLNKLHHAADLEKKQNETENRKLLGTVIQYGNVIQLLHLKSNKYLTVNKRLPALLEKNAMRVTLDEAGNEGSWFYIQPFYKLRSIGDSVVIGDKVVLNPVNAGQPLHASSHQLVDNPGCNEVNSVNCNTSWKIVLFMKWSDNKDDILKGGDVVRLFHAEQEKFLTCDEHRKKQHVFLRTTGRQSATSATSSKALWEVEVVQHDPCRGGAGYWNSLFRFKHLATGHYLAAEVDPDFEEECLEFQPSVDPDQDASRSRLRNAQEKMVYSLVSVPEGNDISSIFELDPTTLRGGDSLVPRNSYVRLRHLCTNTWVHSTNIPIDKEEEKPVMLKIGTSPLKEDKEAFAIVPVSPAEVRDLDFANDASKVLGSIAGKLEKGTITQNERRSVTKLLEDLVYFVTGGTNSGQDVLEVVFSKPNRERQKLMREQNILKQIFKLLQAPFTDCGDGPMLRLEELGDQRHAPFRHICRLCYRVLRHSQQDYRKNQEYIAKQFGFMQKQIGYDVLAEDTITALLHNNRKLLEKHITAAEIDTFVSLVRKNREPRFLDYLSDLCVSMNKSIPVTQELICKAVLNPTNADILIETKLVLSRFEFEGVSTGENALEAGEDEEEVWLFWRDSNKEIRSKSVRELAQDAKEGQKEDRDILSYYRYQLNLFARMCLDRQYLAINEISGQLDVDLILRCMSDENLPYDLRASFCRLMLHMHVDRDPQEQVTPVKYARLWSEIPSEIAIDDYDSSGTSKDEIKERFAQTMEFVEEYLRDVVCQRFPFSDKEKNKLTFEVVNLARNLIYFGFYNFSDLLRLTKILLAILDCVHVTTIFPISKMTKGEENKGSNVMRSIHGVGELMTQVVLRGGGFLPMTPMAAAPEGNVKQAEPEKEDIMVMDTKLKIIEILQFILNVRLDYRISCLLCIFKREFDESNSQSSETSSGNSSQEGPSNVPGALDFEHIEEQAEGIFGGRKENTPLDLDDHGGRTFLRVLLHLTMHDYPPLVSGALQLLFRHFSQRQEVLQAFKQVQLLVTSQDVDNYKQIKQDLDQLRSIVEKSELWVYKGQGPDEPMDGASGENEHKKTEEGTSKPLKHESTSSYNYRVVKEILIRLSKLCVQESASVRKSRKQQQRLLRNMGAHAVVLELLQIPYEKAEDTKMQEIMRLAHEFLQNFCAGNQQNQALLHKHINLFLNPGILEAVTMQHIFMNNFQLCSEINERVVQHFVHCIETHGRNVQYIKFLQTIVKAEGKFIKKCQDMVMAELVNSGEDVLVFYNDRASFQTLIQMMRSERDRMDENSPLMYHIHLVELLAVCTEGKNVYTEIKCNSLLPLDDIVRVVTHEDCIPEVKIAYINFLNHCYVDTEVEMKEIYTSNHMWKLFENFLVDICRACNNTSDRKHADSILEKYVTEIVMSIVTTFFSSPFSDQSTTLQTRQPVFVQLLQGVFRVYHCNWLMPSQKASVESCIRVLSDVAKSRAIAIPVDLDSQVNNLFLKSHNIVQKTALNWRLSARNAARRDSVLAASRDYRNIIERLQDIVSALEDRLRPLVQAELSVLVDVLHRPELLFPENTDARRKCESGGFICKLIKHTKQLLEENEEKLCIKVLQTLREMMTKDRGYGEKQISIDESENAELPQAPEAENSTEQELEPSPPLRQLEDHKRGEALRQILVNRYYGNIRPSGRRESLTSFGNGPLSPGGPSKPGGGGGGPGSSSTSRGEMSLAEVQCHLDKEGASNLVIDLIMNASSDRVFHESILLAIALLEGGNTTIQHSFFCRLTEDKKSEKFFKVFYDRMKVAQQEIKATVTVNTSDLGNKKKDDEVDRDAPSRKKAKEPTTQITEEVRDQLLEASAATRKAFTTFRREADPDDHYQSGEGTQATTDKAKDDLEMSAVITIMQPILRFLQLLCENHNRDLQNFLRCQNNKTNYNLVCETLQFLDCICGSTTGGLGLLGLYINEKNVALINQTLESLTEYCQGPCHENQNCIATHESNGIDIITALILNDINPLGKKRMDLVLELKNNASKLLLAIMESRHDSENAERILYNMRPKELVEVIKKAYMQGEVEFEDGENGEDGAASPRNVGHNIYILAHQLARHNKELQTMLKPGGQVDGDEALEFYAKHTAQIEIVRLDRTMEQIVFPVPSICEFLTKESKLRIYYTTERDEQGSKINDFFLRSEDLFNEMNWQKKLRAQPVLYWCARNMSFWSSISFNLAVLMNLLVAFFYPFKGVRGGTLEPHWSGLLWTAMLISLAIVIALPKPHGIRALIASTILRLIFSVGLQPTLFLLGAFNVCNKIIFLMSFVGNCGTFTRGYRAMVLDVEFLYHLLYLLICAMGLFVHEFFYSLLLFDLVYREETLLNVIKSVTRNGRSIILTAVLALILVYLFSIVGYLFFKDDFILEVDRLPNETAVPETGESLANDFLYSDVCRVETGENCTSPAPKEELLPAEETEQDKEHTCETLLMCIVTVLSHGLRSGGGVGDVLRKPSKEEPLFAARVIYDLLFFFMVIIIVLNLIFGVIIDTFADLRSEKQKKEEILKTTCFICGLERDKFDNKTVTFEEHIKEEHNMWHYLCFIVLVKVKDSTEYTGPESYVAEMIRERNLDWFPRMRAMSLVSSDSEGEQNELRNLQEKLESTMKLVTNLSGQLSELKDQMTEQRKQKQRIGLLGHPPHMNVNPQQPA

- binding result: no binding
B1: mouse KRAP deletion mutant composed of the coiled-coil region only (988-1252), N-terminal HA tag (other)
chain: HMTEEDRYEVDQLQGLRNSVRMELQDLEMQLEERLLGLDEQLRAVRVPSPFRPSALPGMCGSRSVDNLSCPSPLNVMEPVTELMREQSYLKSELGLGLGDMAYEIPPGESSESVFSQATSESSSVCSSPSHTNRRSRGLPGSKPRARLVARKKIFRASVALTPTAPSRTGSVQTPPDLESSEEAGGAEEASPVVGLASHVEEEPEDLSLMPAAEEMHRNVEQDELQQVIREIKESIVGEIRREIVSGLLAAVASSKAPGPKQDSH
notes: not shown: N-terminal HA tag of the pCMV-HA vector
